Columns and labels:
[1] = target: FcγRIIIA (CD16) (human) (UniProt P08637); test: cell-based or functional assay
[2] = target: CD20 on Daudi lymphoma cells (UniProt P11836); test: flow cytometry on Daudi cells, goat anti-human Fc AF647; matched Fc density chosen for the comparison of C3b deposition, concentration not given
CD20 on Daudi lymphoma cells, sequence (P11836 whole entry): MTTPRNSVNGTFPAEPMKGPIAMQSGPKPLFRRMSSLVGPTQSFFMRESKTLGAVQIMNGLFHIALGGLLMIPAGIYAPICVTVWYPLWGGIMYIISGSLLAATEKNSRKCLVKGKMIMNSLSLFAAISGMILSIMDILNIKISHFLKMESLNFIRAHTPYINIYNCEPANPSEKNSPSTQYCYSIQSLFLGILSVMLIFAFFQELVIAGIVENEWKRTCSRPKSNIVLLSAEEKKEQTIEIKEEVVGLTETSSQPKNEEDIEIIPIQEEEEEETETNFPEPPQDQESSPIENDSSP

FcγRIIIA (CD16) (human), sequence (P08637 17-254): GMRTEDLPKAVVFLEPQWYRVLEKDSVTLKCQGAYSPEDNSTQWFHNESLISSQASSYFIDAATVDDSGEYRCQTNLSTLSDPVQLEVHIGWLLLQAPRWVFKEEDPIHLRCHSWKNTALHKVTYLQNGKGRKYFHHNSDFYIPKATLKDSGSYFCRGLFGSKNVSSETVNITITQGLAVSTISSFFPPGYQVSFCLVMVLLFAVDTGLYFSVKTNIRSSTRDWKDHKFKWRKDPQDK

percentage of phagocytic macrophages, Daudi targets, absence of complement (ADCP) [1]: 8.6%
percentage of phagocytic macrophages, Daudi targets, presence of complement (ADCP+CDCP) [1]: 24.1%
MFI anti-Fc [2]: 12200 MFI
Substance: MabThera (rituximab, RTX) (antibody)
